Experimental data published in PMC7718890, “High-throughput screening to discover inhibitors of the CarD·RNA polymerase protein–protein interaction in Mycobacterium tuberculosis” (Scientific Reports, 2020).

Key:
[1] = molecular target: CarD T8C labelled with BODIPY-FL (Mycobacterium tuberculosis) (UniProt P9WJG3); assay: fluorescence polarisation
[2] = molecular target: Mycobacterium tuberculosis RNA polymerase, wild type (Mycobacterium tuberculosis) (UniProt P9WGY9); assay: fluorescence polarisation

“Mycobacterium tuberculosis RNA polymerase, wild type (from UniProt P9WGY9 8-1140) (complex)” was tested, and the Kd [1] was 65 nM.

“Wild-type MTB CarD, unlabeled (from UniProt P9WJG3 1-162) (natural protein)” was tested, and the Ki [2] was 8 nM.
